target: T1, EsCas13d, nuclease-dead (Eubacterium siraeum, UniProt B0MS50, R295A;H300A;R849A;H854A); assay: crRNA (strand 1, pre-loaded); Mg2+; 40 mM Tris-HCl pH 7.5, 150 mM NaCl, 6 mM MgCl2, 1 mM DTT, 0.1% Tween-20, 0.2 mg/ml BSA; 25 C; 10 min per concentration, then washed; settings: tags: His6-TwinStrep-SUMO cleaved; N-terminal SNAP kept (SNAP-Surface 488); label: 3' end held by stalled T7 RNA polymerase
T1 sequence: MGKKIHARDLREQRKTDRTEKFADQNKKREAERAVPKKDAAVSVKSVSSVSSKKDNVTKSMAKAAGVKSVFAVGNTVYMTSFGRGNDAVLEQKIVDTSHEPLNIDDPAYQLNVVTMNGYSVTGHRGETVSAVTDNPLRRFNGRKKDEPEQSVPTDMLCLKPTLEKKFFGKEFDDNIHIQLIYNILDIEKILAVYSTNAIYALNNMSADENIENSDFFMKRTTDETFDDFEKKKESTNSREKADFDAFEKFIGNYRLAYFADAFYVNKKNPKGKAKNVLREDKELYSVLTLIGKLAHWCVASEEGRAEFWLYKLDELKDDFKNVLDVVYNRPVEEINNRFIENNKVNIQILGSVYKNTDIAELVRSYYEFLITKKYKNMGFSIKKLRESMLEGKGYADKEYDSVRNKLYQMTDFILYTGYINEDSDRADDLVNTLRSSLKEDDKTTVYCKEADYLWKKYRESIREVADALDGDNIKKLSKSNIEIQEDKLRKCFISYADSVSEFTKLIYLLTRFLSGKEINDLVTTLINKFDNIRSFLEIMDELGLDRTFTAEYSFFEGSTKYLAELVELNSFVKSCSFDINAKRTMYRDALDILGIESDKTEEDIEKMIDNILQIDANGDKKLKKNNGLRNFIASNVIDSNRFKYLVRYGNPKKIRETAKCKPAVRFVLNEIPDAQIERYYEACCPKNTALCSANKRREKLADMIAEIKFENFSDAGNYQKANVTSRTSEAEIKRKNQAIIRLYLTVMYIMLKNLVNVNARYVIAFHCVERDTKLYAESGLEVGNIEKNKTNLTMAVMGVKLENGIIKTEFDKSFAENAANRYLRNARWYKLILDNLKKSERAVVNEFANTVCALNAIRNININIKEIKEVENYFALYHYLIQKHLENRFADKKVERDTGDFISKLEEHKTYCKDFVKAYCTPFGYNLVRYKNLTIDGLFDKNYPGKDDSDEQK

Binder	Kd [nM]
target 1 insG 3' of 4,insG 3' of 4 (mixed) RNA 1: CACCCGUGCAAAAAUGCAGGGGUCUAAAACUGAGCGGAUAACCUCUCUAUGG RNA 2: GGGAAUGGAUCCACAUCUACGAAUUCGUACCAUAGAGAGGUUAUCCGCGGUCACCGAGAUCGGAAGAGCACACGU	5.72 ± 0.26
target 1 insU 3' of 12,insA 3' of 12 (mixed) RNA 1: CACCCGUGCAAAAAUGCAGGGGUCUAAAACUGAGCGGAUAACCUCUCUAUGG RNA 2: GGGAAUGGAUCCACAUCUACGAAUUCGUACCAUAGAGAGGUAUUAUCCGCUCACCGAGAUCGGAAGAGCACACGU	10.1 ± 0.5
target 1 insC 3' of 13,insU 3' of 1 (mixed) RNA 1: CACCCGUGCAAAAAUGCAGGGGUCUAAAACUGAGCGGAUAACCUCUCUAUGG RNA 2: GGGAAUGGAUCCACAUCUACGAAUUCGUACCAUAGAGAGCGUUAUCCGCUCAUCCGAGAUCGGAAGAGCACACGU	11.5 ± 1.1
target 1 A1U,U8C (mixed) RNA 1: CACCCGUGCAAAAAUGCAGGGGUCUAAAACUGAGCGGAUAACCUCUCUAUGG RNA 2: GGGAAUGGAUCCACAUCUACGAAUUCGUACCAUAGAGAGGUUACCCGCUCUCCGAGAUCGGAAGAGCACACGU	11.2 ± 0.5
target 1 C6G,U11G (mixed) RNA 1: CACCCGUGCAAAAAUGCAGGGGUCUAAAACUGAGCGGAUAACCUCUCUAUGG RNA 2: GGGAAUGGAUCCACAUCUACGAAUUCGUACCAUAGAGAGGGUAUCGGCUCACCGAGAUCGGAAGAGCACACGU	9.6 ± 0.5
target 1 A1U,U11A (mixed) RNA 1: CACCCGUGCAAAAAUGCAGGGGUCUAAAACUGAGCGGAUAACCUCUCUAUGG RNA 2: GGGAAUGGAUCCACAUCUACGAAUUCGUACCAUAGAGAGGAUAUCCGCUCUCCGAGAUCGGAAGAGCACACGU	37.8 ± 3
target 1 insA 3' of 5 (mixed) RNA 1: CACCCGUGCAAAAAUGCAGGGGUCUAAAACUGAGCGGAUAACCUCUCUAUGG RNA 2: GGGAAUGGAUCCACAUCUACGAAUUCGUACCAUAGAGAGGUUAUCCGACUCACCGAGAUCGGAAGAGCACACGU	6.2 ± 0.4
target 1 G5C,U19G (mixed) RNA 1: CACCCGUGCAAAAAUGCAGGGGUCUAAAACUGAGCGGAUAACCUCUCUAUGG RNA 2: GGGAAUGGAUCCACAUCUACGAAUUCGUACCAGAGAGAGGUUAUCCCCUCACCGAGAUCGGAAGAGCACACGU	30 ± 4
target 1 insG 3' of 18,insA 3' of 11 (mixed) RNA 1: CACCCGUGCAAAAAUGCAGGGGUCUAAAACUGAGCGGAUAACCUCUCUAUGG RNA 2: GGGAAUGGAUCCACAUCUACGAAUUCGUACCAUAGGAGAGGUAUAUCCGCUCACCGAGAUCGGAAGAGCACACGU	89 ± 11
target 1 U8C,G12U (mixed) RNA 1: CACCCGUGCAAAAAUGCAGGGGUCUAAAACUGAGCGGAUAACCUCUCUAUGG RNA 2: GGGAAUGGAUCCACAUCUACGAAUUCGUACCAUAGAGAGUUUACCCGCUCACCGAGAUCGGAAGAGCACACGU	10.7 ± 0.6
target 1 C7G,A14G (mixed) RNA 1: CACCCGUGCAAAAAUGCAGGGGUCUAAAACUGAGCGGAUAACCUCUCUAUGG RNA 2: GGGAAUGGAUCCACAUCUACGAAUUCGUACCAUAGAGGGGUUAUGCGCUCACCGAGAUCGGAAGAGCACACGU	17.7 ± 1.2
target 1 U19A,A20U (mixed) RNA 1: CACCCGUGCAAAAAUGCAGGGGUCUAAAACUGAGCGGAUAACCUCUCUAUGG RNA 2: GGGAAUGGAUCCACAUCUACGAAUUCGUACCUAAGAGAGGUUAUCCGCUCACCGAGAUCGGAAGAGCACACGU	47 ± 4
target 1 C7G,U10C (mixed) RNA 1: CACCCGUGCAAAAAUGCAGGGGUCUAAAACUGAGCGGAUAACCUCUCUAUGG RNA 2: GGGAAUGGAUCCACAUCUACGAAUUCGUACCAUAGAGAGGUCAUGCGCUCACCGAGAUCGGAAGAGCACACGU	24.6 ± 2.2
target 1 del9,del14 (mixed) RNA 1: CACCCGUGCAAAAAUGCAGGGGUCUAAAACUGAGCGGAUAACCUCUCUAUGG RNA 2: GGGAAUGGAUCCACAUCUACGAAUUCGUACCAUAGAGGGUUUCCGCUCACCGAGAUCGGAAGAGCACACGU	28 ± 1.8
target 1 A20U,C21U (mixed) RNA 1: CACCCGUGCAAAAAUGCAGGGGUCUAAAACUGAGCGGAUAACCUCUCUAUGG RNA 2: GGGAAUGGAUCCACAUCUACGAAUUCGUACUUUAGAGAGGUUAUCCGCUCACCGAGAUCGGAAGAGCACACGU	19.5 ± 1.2
target 1 insU 3' of 7,insG 3' of 4 (mixed) RNA 1: CACCCGUGCAAAAAUGCAGGGGUCUAAAACUGAGCGGAUAACCUCUCUAUGG RNA 2: GGGAAUGGAUCCACAUCUACGAAUUCGUACCAUAGAGAGGUUAUCUCGCGUCACCGAGAUCGGAAGAGCACACGU	7.41 ± 0.26
target 1 U11A,C21U (mixed) RNA 1: CACCCGUGCAAAAAUGCAGGGGUCUAAAACUGAGCGGAUAACCUCUCUAUGG RNA 2: GGGAAUGGAUCCACAUCUACGAAUUCGUACUAUAGAGAGGAUAUCCGCUCACCGAGAUCGGAAGAGCACACGU	8.3 ± 0.5
target 1 insG 3' of 19,insA 3' of 10 (mixed) RNA 1: CACCCGUGCAAAAAUGCAGGGGUCUAAAACUGAGCGGAUAACCUCUCUAUGG RNA 2: GGGAAUGGAUCCACAUCUACGAAUUCGUACCAUGAGAGAGGUUAAUCCGCUCACCGAGAUCGGAAGAGCACACGU	59 ± 5
target 1 insU 3' of 21,insC 3' of 20 (mixed) RNA 1: CACCCGUGCAAAAAUGCAGGGGUCUAAAACUGAGCGGAUAACCUCUCUAUGG RNA 2: GGGAAUGGAUCCACAUCUACGAAUUCGUACCUACUAGAGAGGUUAUCCGCUCACCGAGAUCGGAAGAGCACACGU	13.5 ± 1
target 1 insA 3' of 21,insG 3' of 2 (mixed) RNA 1: CACCCGUGCAAAAAUGCAGGGGUCUAAAACUGAGCGGAUAACCUCUCUAUGG RNA 2: GGGAAUGGAUCCACAUCUACGAAUUCGUACCAAUAGAGAGGUUAUCCGCUCGACCGAGAUCGGAAGAGCACACGU	16 ± 0.9
target 1 insC 3' of 19,insG 3' of 8 (mixed) RNA 1: CACCCGUGCAAAAAUGCAGGGGUCUAAAACUGAGCGGAUAACCUCUCUAUGG RNA 2: GGGAAUGGAUCCACAUCUACGAAUUCGUACCAUCAGAGAGGUUAUGCCGCUCACCGAGAUCGGAAGAGCACACGU	45 ± 7
target 1 U3C,G5U (mixed) RNA 1: CACCCGUGCAAAAAUGCAGGGGUCUAAAACUGAGCGGAUAACCUCUCUAUGG RNA 2: GGGAAUGGAUCCACAUCUACGAAUUCGUACCAUAGAGAGGUUAUCCUCCCACCGAGAUCGGAAGAGCACACGU	42 ± 9
target 1 A9U,G12U (mixed) RNA 1: CACCCGUGCAAAAAUGCAGGGGUCUAAAACUGAGCGGAUAACCUCUCUAUGG RNA 2: GGGAAUGGAUCCACAUCUACGAAUUCGUACCAUAGAGAGUUUUUCCGCUCACCGAGAUCGGAAGAGCACACGU	10.9 ± 1.1
target 1 insG 3' of 10,insU 3' of 6 (mixed) RNA 1: CACCCGUGCAAAAAUGCAGGGGUCUAAAACUGAGCGGAUAACCUCUCUAUGG RNA 2: GGGAAUGGAUCCACAUCUACGAAUUCGUACCAUAGAGAGGUUGAUCCUGCUCACCGAGAUCGGAAGAGCACACGU	36.8 ± 3.1
target 1 A1U,G15U (mixed) RNA 1: CACCCGUGCAAAAAUGCAGGGGUCUAAAACUGAGCGGAUAACCUCUCUAUGG RNA 2: GGGAAUGGAUCCACAUCUACGAAUUCGUACCAUAGAUAGGUUAUCCGCUCUCCGAGAUCGGAAGAGCACACGU	25.9 ± 3
target 1 del13,del17 (mixed) RNA 1: CACCCGUGCAAAAAUGCAGGGGUCUAAAACUGAGCGGAUAACCUCUCUAUGG RNA 2: GGGAAUGGAUCCACAUCUACGAAUUCGUACCAUAAGAGUUAUCCGCUCACCGAGAUCGGAAGAGCACACGU	55 ± 20
target 1 C7A,U11C (mixed) RNA 1: CACCCGUGCAAAAAUGCAGGGGUCUAAAACUGAGCGGAUAACCUCUCUAUGG RNA 2: GGGAAUGGAUCCACAUCUACGAAUUCGUACCAUAGAGAGGCUAUACGCUCACCGAGAUCGGAAGAGCACACGU	8.4 ± 0.4
target 1 C4U,A9U (mixed) RNA 1: CACCCGUGCAAAAAUGCAGGGGUCUAAAACUGAGCGGAUAACCUCUCUAUGG RNA 2: GGGAAUGGAUCCACAUCUACGAAUUCGUACCAUAGAGAGGUUUUCCGUUCACCGAGAUCGGAAGAGCACACGU	50 ± 16

From article PMC10786891, “Massively parallel profiling of RNA-targeting CRISPR-Cas13d”
